This is an account of results in patent US20240293316A1, “ENZYME-RESPONSIVE POLYMER PEPTIDE AMPHIPHILES FOR TARGETED DRUG DELIVERY TO TREAT LOCAL AND SYSTEMIC INFLAMMATION” (Ramot at Tel-Aviv University Ltd., priority 2021, published 2024).

For data set [1], the target named is thermolysin (Bacillus thermoproteolyticus, UniProt P00800). The settings on record: 1 μM thermolysin:100 μM polymer, 24 hours incubation at 37° C. The procedure:
Transmission electron microscopy (TEM): Nanoparticles were characterized using a Hitachi HD-2300 STEM. Grids were prepared using a 1% uranyl acetate solution.
The nanoparticle cleavage experiment was performed similarly as described in Materials and Methods section, using a ratio of 1 μM thermolysin:100 μM polymer for 24 hours incubation at 37° C.

For data set [2], the system named is diabetic rats following collagen membrane implantation. Nature of the data set: Diabetic rats with implanted collagen membrane, histology of residual collagen membrane (HRP-Avidin). The format is in vivo, Female Sprague Dawley rats. The procedure: (§1) “Diabetic induction” model [Zoabi et al. 2020, supra]: Type 1-like diabetes was induced through a single intraperitoneal injection of streptozotocin, and the induction of hyperglycemia is confirmed by a blood glucose level that is higher than 270 mg/dL at 7 days post injection;
(§2) “Collagen membrane implantation” under scalp of diabetic rats, wherein a para-sagital excisional wound, 10 mm in length, was created in the center of the skin of the calvaria, the periosteum was separated from the skull bone, and a collagen membrane was implanted beneath [Eliezer M, Nemcovsky C, Romanos G, Kozlovsky A, Tal H, Kolerman R, Weinreb M, Moses O. Opposing effects of diabetes and tetracycline on the degradation of collagen membranes in rats. J Periodontol. 2013 April; 84(4):529-34; Tal H, Weinreb M, Shely A, Nemcovsky C E, Moses O. Tetracycline impregnation affects degradation of porcine collagen matrix in healthy and diabetic rats. Clin Oral Investig. 2016 July; 20(6):1237-42; Moses O, Eliezer M, Nemcovsky C, Tal H, Weinreb M. Accelerated degradation of collagen membranes in diabetic rats is associated with increased infiltration of macrophages and blood vessels. Clin Oral Investig. 2016 September; 20(7):1589-96; Eliezer M, Sculean A, Miron R J, Nemcovsky C, Weinberg E, Weinreb M, Zoabi H, Bosshardt D D, Fujioka-Kobayashi M, Moses O. Hyaluronic acid slows down collagen membrane degradation in uncontrolled diabetic rats. J Periodontal Res. 2019 December; 54(6):644-652; and Zoabi H, Nemcovsky C E, Bender O, Moses O, Weinreb M. Accelerated degradation of collagen membranes in type 1 diabetic rats is associated with increased expression and production of several inflammatory molecules. J Periodontol. 2020 October; 91(10):1348-13561.
(§3) At day 8, the rats were randomly divided into five groups to receive one single dosage of: i) NPL, ii) NPD, iii) NPR, iv) free DEX, or v) no injection, through a subcutaneous injection posterior to the ear (n=12 for each treatment group and n=3 for the no injection control group). For each treated group, 260 μg of DEX (either free-form or conjugated to the polymer) was used to provide a […] dosage similar to the literature value. Thus, the PPA NPs injection contained 250 μM polymer with 50% (125 μM) Cy 5.5 labeling, for each 200 μL injection.
Two weeks following injection, the rats were sacrificed with carbon dioxide overdose, and the skull together with the over lining periosteum and the membrane were harvested.
The harvested skull together with the over lining periosteum and the membrane were subjected to the following processing: tissues from 10 rats per group were fixed with paraformaldehyde, and processed for decalcified tissue histology, embedded in paraffin. […]

Data set [3] shares this test system. Nature of the data set: Diabetic rats with implanted collagen membrane, fluorescence imaging of DEX-containing nanoparticles. Conditions: for order of in-vivo fluorescence intensity: 7- and 14-days post injection. It is filed as in vivo, Female Sprague Dawley rats. As for the experimental part: as §1, §2
Type 1-like diabetes was induced as described in the Materials and Methods section, and the induction of hyperglycemia was confirmed by a blood glucose level higher than 270 mg/dL 7 days post injection (see, FIGS. 13A and 13B).
as §3

Data set [4] deals with MMP-9 (Homo sapiens, UniProt P14780). Nature of the data set: MMP-9 cleavage assay of norbornene peptide monomers (HPLC). It is filed as biochemical. The settings on record: 0.5 μM MMP-9: 500 μM NorMMP, 24 hours of incubation at 37° C. The procedure: Stock solution of NorMMP peptide (510 μM) was prepared in DPBS buffer. To an Eppendorf tube, 1.5 μL MMP-9 stock (38.46 μM) and […] of NorMMP stock was added, giving a final concentration of 0.5 μM MMP-9: 500 μM NorMMP. The solution was incubated at 37° C. for 24 hours to promote peptide cleavage. To prepare the HPLC sample, 50 μL of the reaction mixture was added to 150 μL of DPBS buffer. 40 μL of resulting solution was injected into HPLC for analysis. For NorMMPL, NorMMPD and the cleavable sequence ([…]), a gradient of 20-60% Buffer B over 30 minutes was used. For the NorMMPR, a gradient of 20-40% Buffer B in 30 minutes was used.
MMP-9, sequence (P14780 94-707): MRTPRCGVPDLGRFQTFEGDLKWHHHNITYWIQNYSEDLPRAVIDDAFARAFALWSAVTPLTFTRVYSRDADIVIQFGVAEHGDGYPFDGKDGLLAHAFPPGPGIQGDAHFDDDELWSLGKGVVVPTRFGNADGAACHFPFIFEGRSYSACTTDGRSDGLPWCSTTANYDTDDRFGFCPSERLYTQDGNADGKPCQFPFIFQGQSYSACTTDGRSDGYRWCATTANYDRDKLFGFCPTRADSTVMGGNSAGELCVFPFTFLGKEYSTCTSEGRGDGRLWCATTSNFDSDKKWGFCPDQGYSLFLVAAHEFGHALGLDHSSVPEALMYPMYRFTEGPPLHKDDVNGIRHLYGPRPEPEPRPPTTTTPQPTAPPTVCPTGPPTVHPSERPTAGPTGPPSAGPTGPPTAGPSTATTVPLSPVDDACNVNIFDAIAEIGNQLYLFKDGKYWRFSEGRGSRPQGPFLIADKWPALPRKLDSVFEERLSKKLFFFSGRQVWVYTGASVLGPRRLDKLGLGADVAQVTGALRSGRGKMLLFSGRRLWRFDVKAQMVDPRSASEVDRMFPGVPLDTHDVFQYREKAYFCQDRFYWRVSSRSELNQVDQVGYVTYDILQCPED
Three test groups, including the norbornenes functionalized with random peptide (NorMMPR), D- and L-MMP peptide (NorMMPD and NorMMPL), and one control group with the cleaved peptide sequence […] were setup.

A short description of data set [5]: Properties of the designed random peptide (water solubility, net charge). It is filed as physicochemical. As for the experimental part: A new random peptide sequence was designed by replacing the MMP recognizable amino acid sequence PLGLAG (SEQ ID NO: 16) into GSGSGS (SEQ ID NO: 20).
Following the preparation of peptide functionalized norbornene monomers, an MMP-9 cleavage assay was performed setup, as described in the Materials and Methods section hereinabove.

[6] abbreviates: single dose, 260 μg of DEX, two weeks following injection.

Square brackets hold non-standard residues; d marks the D form. Ends that are not written are not given here. * marks the point of attachment. NorAHA = (N-hexanoic acid)-5-norbornene-exo-2,3-dicarboximide, O=C1[C@@H]2[C@H](C(=O)N1CCCCCC(=O)*)[C@H]1C=C[C@@H]2C1

thermolysin, sequence (P00800 233-548, species assumed): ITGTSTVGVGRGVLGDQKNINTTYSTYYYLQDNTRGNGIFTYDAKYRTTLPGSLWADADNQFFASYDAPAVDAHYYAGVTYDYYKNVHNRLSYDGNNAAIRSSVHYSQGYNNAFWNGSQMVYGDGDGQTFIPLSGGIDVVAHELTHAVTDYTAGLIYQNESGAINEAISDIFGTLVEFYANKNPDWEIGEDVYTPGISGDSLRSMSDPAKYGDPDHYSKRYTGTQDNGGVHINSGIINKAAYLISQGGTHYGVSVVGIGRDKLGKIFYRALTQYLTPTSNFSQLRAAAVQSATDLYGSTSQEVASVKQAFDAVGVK

As to “NPL: micellar nanoparticles formed of DEX-containing L-MMP-containing PPA (PPAL) (NorAHA-GPLGLAGGERDG-NH2; not fully specified; also: micellar nanoparticle of NorDEX20-b-NorMMP5 polynorbornene block copolymer with DEX ester)”, the “nanoparticle morphology upon thermolysin treatment (TEM)” value in data set [1] is given as “cleavage induced aggregation”. Also, in data set [2] (setting [6]), the “collagen membrane area, higher than the free dexamethasone group” value is reported as “about 20%”; the “collagen membrane area, higher than the no treatment group” value is “about 40%”; the “remaining collagen membrane area compared to free-form dexamethasone-treated group” value is “significantly larger”. In addition, in data set [2] (staining and histology analysis), the “voids in the residual collagen membranes compared to free-form dexamethasone and no injection groups” value was “significantly less voids”. Moreover, the “order of in-vivo fluorescence intensity” value in data set [3] is on record as “NPL>NPD>NPR”. Also, the “in-vivo fluorescence intensity compared to NPD and NPR controls” value in data set [3] (7- and 14-days post injection (day 14 and day 21)) was “significantly higher”.
Take “NorMMPD: norbornene monomer with D-MMP peptide (SEQ ID NO: 2), D-amino acids in the PLGLAG portion (NorAHA-G[dP][dL]G[dL][dA]GGERDG-NH2; not fully specified)”: the “cleavage by MMP-9 (HPLC traces)” value in data set [4] is listed as “remained intact”.
As to “NorMMPL: norbornene monomer functionalized with L-MMP peptide (SEQ ID NO: 1), MMP-cleavable (NorAHA-GPLGLAGGERDG-NH2; SMILES CC(C)C[C@H](NC(=O)CNC(=O)[C@H](CC(C)C)NC(=O)[C@@H]1CCCN1C(=O)CNC(=O)CCCCCN1C(=O)[C@@H]2[C@H](C1=O)[C@H]1C=C[C@@H]2C1)C(=O)N[C@@H](C)C(=O)NCC(=O)NCC(=O)N[C@@H](CCC(=O)O)C(=O)N[C@@H](CCCNC(=N)N)C(=O)N[C@@H](CC(=O)O)C(=O)NCC(N)=O)”, the “cleavage by MMP-9 (HPLC traces)” value in data set [4] is recorded as “completely cleaved”.
Turning to “NPD: micellar nanoparticles formed of DEX-containing D-MMP-containing PPA (PPAD) (NorAHA-G[dP][dL]G[dL][dA]GGERDG-NH2; not fully specified; also: grafted via NorAHA into ROMP polynorbornene block copolymer, micellar nanoparticle)”, in data set [1], the “nanoparticle morphology upon thermolysin treatment (TEM)” value is “maintained their nanoparticle morphology”. In data set [3], the “order of in-vivo fluorescence intensity” value is “NPL>NPD>NPR”.
“GGSGSGSGWGERDGS-NH2 (C-terminus assumed) [random peptide]”: the water solubility result in data set [5] is “good water solubility”.
For “NPR: micellar nanoparticles formed of DEX-containing random-peptide PPA (PPAR) (GGSGSGSGWGERDGS)”, the “nanoparticle morphology upon thermolysin treatment (TEM)” value in data set [1] was “maintained their nanoparticle morphology”. Besides, the “order of in-vivo fluorescence intensity” value in data set [3] is “NPL>NPD>NPR”.
As for “MMP peptide: peptide comprising PLGLAG sequence with all L-amino acids (SEQ ID NO: 1), MMP-cleavable (GPLGLAGGERDG-NH2)”, the net charge in data set [5] (pH=7) is recorded as −1.
Turning to “NorMMPR: norbornene monomer with R-MMP random peptide (SEQ ID NO: 17) (NorAHA-GGSGSGSGWGERDGS-NH2; not fully specified)”, the “cleavage by MMP-9 (HPLC traces)” value in data set [4] was “remained intact”.
